Assay results reported in US20200024330A1.

What was measured:
Assay in all cases: cell-based or functional assay
[1] = target: HIV-1 Env of isolate 92WR009 (HIV-1)
[2] = target: HIV-1 Env of isolate 92WR026 (HIV-1)
[3] = target: HIV-1 Env of isolate MGRM-C-006 (HIV-1)
[4] = target: HIV-1 Env of isolate MGRM-C-028 (HIV-1)
[5] = target: HIV-1 Env of isolate MGRM-F1-012 (subtype F), on pseudovirus (HIV-1)
[6] = target: HIV-1 JR-CSF Env N478A (HIV-1 (isolate JR-CSF)) (UniProt P20871)
[7] = target: HIV-1 Env of isolate MGRM-D-026 (subtype D), on pseudovirus (HIV-1)
[8] = target: HIV-1 Env of isolate 92UG005 (HIV-1)
[9] = target: HIV-1 JR-CSF Env E466A (HIV-1 (isolate JR-CSF)) (UniProt P20871)
[10] = target: HIV-1 Env of isolate 98CN006 (HIV-1)
[11] = target: HIV-1 Env of isolate MGRM-C-025 (HIV-1)
[12] = target: HIV-1 Env of isolate 92WR024 (HIV-1)
[13] = target: HIV-1 Env of isolate NL43 (HIV-1)
[14] = target: HIV-1 Env of isolate MGRM-A-008 (clade A), on pseudovirus (HIV-1)
[15] = target: HIV-1 Env of isolate MGRM-F1-020 (subtype F), on pseudovirus (HIV-1)
[16] = target: HIV-1 Env of isolate MGRM-F1-023 (subtype F), on pseudovirus (HIV-1)
[17] = target: HIV-1 Env of isolate MG RM-AG-009 (HIV-1)
[18] = target: HIV-1 SC422661.8 Env (pseudovirus) (HIV-1)
[19] = target: HIV-1 Env of isolate MGRM-F1-020 (HIV-1)
[20] = target: HIV-1 Env of isolate MGRM-F1-004 (subtype F) (HIV-1)
[21] = target: HIV-1 Env of isolate MG RM-D-012 (subtype D) (HIV-1)
[22] = target: HIV-1 MGRM-A-010 envelope glycoprotein (Env) on pseudovirus (HIV-1)
[23] = target: HIV-1 Env of isolate MGRM-F1-013 (HIV-1)
[24] = target: HIV-1 92BR020 Env (pseudovirus) (HIV-1)
[25] = target: HIV-1 Env of isolate 92UG114 (subtype D) (HIV-1)
[26] = target: HIV-1 Env of isolate MGRM-C-009 (pseudovirus) (HIV-1 isolate MGRM-C-009, subtype C)

Chain of 5329_C19 (PGT-136) (antibody) (VH): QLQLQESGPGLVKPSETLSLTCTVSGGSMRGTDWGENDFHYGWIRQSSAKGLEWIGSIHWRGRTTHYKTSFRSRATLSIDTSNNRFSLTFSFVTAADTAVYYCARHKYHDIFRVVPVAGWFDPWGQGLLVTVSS
Chain of 5329_C19 (PGT-136) (antibody) (VL): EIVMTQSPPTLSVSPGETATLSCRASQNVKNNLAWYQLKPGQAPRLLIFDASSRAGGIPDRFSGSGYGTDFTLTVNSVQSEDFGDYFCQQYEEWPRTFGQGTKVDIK

| Substance | neutralization IC50 [1] [µg/mL] | neutralization IC50 [2] [µg/mL] | IC50 [3] [µg/mL] | IC50 [4] [µg/mL] | IC50, pseudovirus neutralization [5] [µg/mL] | Fold IC50 increase relative to wild-type [6] [fold] | IC50, pseudovirus neutralization [7] [µg/mL] | IC50 [8] [µg/mL] | Fold IC50 increase relative to wild-type [9] [fold] | IC50 [10] [µg/mL] | IC50 [11] [µg/mL] | neutralization IC50 [17] [µg/mL] | IC50, pseudovirus neutralization [18] [µg/mL] | IC50 [19] [µg/mL] | IC50 (µg/mL), pseudovirus neutralization [20] [µg/mL] | IC50 (µg/mL), pseudovirus neutralization [21] [µg/mL] | IC50 [23] [µg/mL] | IC50, pseudovirus neutralization [24] [µg/mL] | IC50 (µg/mL), pseudovirus neutralization [25] [µg/mL] | IC50 (µg/mL) neutralization [26] [µg/mL] | also measured |
| --- | --- | --- | --- | --- | --- | --- | --- | --- | --- | --- | --- | --- | --- | --- | --- | --- | --- | --- | --- | --- | --- |
| 5114_A19 (PGT-128) (antibody) | 0.812 | 0.01 | 0.014 | 14.4 | 0.007 | 0.8 | > 50 | 0.018 | 0.6 | 0.015 | 10.5 |  |  |  |  |  |  |  |  |  | neutralization IC50 [12]: > 50 µg/mL; IC50 [13]: > 50 µg/mL; IC50, single-round pseudovirus neutralization [14]: > 50 µg/mL; IC50, pseudovirus neutralization [15]: 0.355 µg/mL; IC50, pseudovirus neutralization [16]: 0.007 µg/mL |
| 5123_A06 (PGT-125) (antibody) |  |  |  |  |  | 1.5 |  |  | 1.6 |  |  | 0.026 | 30.1 | > 50 | > 50 | > 50 | > 50 | 0.016 | 0.349 | > 50 | IC50 (ug/ml), neutralizing activity [22]: 0.0025 µg/mL; neutralization IC50 [22]: 0.0055 µg/mL; neutralization IC80 [22]: 0.024 µg/mL; neutralization IC90 [22]: 0.0575 µg/mL; neutralization IC95 [22]: 0.131 µg/mL |
| 5141_B17 (PGT-126) (antibody) |  |  |  |  |  | 1 |  |  | 1.4 |  |  | 0.03 | 0.119 | > 50 | 0.063 | > 50 | > 50 | 0.015 | 0.038 | > 50 | IC50 (ug/ml), neutralizing activity [22]: 0.0033 µg/mL; IC50 [24]: 0.0163 µg/mL; IC80 [24]: 0.0457 µg/mL; IC90 [24]: 0.0846 µg/mL; IC95 [24]: 0.152 µg/mL |
| 5145_B14 (PGT-127) (antibody) |  |  |  |  |  | 1.2 |  |  | 0.9 |  |  | 0.059 | 36.7 | > 50 | 0.068 | > 50 | > 50 | 0.059 | 7.09 | > 50 |  |
| 5329_C19 (PGT-136) (antibody) | > 50 | > 50 | > 50 | 33.7 | > 50 |  | > 50 | > 50 |  | 0.406 | > 50 |  |  |  |  |  |  |  |  |  | neutralization IC50 [12]: > 50 µg/mL; IC50 [13]: 27.7 µg/mL; IC50, single-round pseudovirus neutralization [14]: > 50 µg/mL; IC50, pseudovirus neutralization [15]: 9.31 µg/mL; IC50, pseudovirus neutralization [16]: > 50 µg/mL |
